Patent US20200239541A1 (XYPHOS BIOSCIENCES, published 2020)

T1: biotinylated human NKG2D (Example 1) (human, UniProt P26718 78-216)
T1 construct: also called recombinant biotinylated NKG2D
T1 sequence (looked up): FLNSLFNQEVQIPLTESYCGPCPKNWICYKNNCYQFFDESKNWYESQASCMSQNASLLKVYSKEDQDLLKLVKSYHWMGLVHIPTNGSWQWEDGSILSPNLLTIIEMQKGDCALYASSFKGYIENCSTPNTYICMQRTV

T2: NKG2D on the human NK cell line NKL (human, UniProt P26718 1-216)
T2 sequence (looked up): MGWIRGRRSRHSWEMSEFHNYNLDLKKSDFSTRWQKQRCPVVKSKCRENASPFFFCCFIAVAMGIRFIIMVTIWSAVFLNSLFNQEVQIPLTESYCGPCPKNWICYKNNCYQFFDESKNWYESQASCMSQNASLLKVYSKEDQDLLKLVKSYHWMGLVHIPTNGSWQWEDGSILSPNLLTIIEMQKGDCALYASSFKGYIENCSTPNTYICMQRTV

T3: human NKG2D-Fc (human, UniProt P26718 78-216)
T3 construct: also called natural NKG2D-Fc; not shown: Fc
T3 sequence (looked up): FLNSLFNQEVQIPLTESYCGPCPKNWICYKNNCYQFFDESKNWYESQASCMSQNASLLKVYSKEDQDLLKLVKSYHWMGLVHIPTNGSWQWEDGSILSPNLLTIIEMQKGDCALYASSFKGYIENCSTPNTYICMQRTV

T4: MICB-Fc (R&D Systems) (human, UniProt Q29980 23-298)
T4 construct: not shown: Fc of the bought reagent
T4 sequence (looked up): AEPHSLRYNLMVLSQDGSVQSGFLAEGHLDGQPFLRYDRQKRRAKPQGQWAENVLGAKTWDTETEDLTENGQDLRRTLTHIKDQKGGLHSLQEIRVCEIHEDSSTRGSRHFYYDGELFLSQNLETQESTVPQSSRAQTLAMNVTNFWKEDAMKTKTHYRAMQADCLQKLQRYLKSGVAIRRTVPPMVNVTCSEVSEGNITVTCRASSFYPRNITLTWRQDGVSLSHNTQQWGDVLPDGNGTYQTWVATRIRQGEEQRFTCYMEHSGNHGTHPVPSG

T5: ULBP1-Fc (R&D Systems) (human, UniProt Q9BZM6 26-216)
T5 construct: not shown: Fc of the bought reagent
T5 sequence (looked up): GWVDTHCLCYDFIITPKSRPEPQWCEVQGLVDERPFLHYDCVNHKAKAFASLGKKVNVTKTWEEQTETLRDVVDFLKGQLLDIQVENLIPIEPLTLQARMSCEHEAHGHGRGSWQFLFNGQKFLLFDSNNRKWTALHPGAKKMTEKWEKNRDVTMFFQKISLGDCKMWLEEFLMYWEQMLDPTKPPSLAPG

T6: ULBP2-Fc (R&D Systems) (human, UniProt Q9BZM5 26-217)
T6 construct: not shown: Fc of the bought reagent
T6 sequence (looked up): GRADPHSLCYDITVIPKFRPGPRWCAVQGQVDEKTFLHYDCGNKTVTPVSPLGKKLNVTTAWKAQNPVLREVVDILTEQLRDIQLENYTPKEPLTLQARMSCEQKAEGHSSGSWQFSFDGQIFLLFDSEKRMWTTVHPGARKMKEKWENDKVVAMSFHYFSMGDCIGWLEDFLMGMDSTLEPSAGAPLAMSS

T7: ULBP3-Fc (R&D Systems) (human, UniProt Q9BZM4 30-217)
T7 construct: not shown: Fc of the bought reagent
T7 sequence (looked up): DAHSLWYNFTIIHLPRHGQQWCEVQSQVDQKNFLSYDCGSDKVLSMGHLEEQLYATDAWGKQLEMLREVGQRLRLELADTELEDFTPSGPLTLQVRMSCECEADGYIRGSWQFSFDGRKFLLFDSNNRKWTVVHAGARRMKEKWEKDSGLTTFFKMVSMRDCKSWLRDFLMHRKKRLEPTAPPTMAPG

T8: ULBP4-Fc (R&D Systems) (human, UniProt Q8TD07 31-225)
T8 construct: not shown: Fc of the bought reagent
T8 sequence (looked up): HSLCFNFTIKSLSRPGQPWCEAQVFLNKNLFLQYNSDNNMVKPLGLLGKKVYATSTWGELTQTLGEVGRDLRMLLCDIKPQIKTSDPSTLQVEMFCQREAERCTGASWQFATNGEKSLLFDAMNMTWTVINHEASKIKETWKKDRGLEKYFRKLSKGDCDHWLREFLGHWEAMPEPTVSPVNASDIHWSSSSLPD


Experiments:
[1] = biological target: T1, biotinylated human NKG2D (Example 1); experiment: BLI (Octet)
[2] = biological target: T2, NKG2D on the human NK cell line NKL; experiment: cell-based or functional assay
[3] = biological target: T1, biotinylated human NKG2D (Example 1); experiment: BLI (Octet), Kd = kOFF/kON
[4] = biological target: T3, human NKG2D-Fc; experiment: competition ELISA vs coated WT sMICA
From the text: (§1) To the NKG2DLs in the above example, we directly attached heterologous molecules such as a polypeptide to each of these 4 modified α1-α2 NKG2DLs using a linker peptide. Four His-tagged proteins (SEQ ID NOs.: 25-28) consisting of modified NKG2DLs with attached heterologous molecules were expressed in insect cells and purified to characterize their NKG2D binding affinities and kinetic binding parameters. Using a competitive binding ELISA, we determined the relative NKG2D binding affinities of the 4 modified α1-α2 variants.

[5] = biological target: T3, human NKG2D-Fc; experiment: competition ELISA vs coated WT sMICA, 2 nM human NKG2D-Fc
From the text: as §1

[6] = biological target: T1, biotinylated human NKG2D (Example 1); experiment: BLI (Octet), biotinylated human NKG2D coated, 100 nM analyte
[7] = biological target: T4, MICB-Fc (R&D Systems); experiment: ELISA, ligand-Fc coated, biotinylated NKG2D titrated
Procedure: (§2) In addition to purifying the above 3 Fc-fusion proteins NKG2D ligand-Fc fusion proteins MICB-Fc, ULBP1-Fc, ULBP2-Fc, ULBP3-Fc, and ULBP4-Fc were purchased from R&D Systems, Inc. (Minneapolis, Minn.). Binding of the different α1-α2 domain-Fc fusions to both natural and non-natural NKG2D ectodomain proteins was analyzed using a plate-based ELISA method. All of the natural and non-natural α1-α2 domain-Fc fusions were coated overnight at 4° C. onto separate wells of Maxisorp 96 well plates using a coating concentration of 2 μg/ml in phosphate-buffered saline (PBS). The plates were washed 3-times in PBS/0.05% Tween20 at 20-22° C., and blocked with 0.5% bovine serum albumin for 2 hours. The biotinylated natural and non-natural NKG2D receptor proteins were titrated against the plate-bound NKG2D ligands for 2 hours at 20-22° C., washed 3 times with PBS/0.05% Tween20 at 20-22° C., and the bound NKG2D proteins subsequently detected using a streptavidin-HRP secondary detection step and developed with 1-Step Ultra TMB Elisa.

[8] = biological target: T5, ULBP1-Fc (R&D Systems); experiment: as above
Procedure: as §2

[9] = biological target: T6, ULBP2-Fc (R&D Systems); experiment: as above
Procedure: as §2

[10] = biological target: T7, ULBP3-Fc (R&D Systems); experiment: as above
Procedure: as §2

[11] = biological target: T8, ULBP4-Fc (R&D Systems); experiment: as above
Procedure: as §2

| Binder | fold affinity increase relative to WT α1-α2 [1] | fold reduction in off-rate relative to WT [1] | NKL cell-mediated lysis of FGFR3-expressing P815 cells (calcein release) [2] | Kd [3] | fold better binding than WT NKG2DL [4] | IC50 [5] | koff [6] | kon [6] | binding result [7] | binding result [8] | binding result [9] | binding result [10] | binding result [11] |
| --- | --- | --- | --- | --- | --- | --- | --- | --- | --- | --- | --- | --- | --- |
| α1-α2 variant 16 (His-tagged, with attached heterologous polypeptide) (ligand) EPHSLRYNLTVLSWDGSVQSGFLTEVHLDGQPFLRCDRQKCRAKPQGQWAEDVLGNKTWDRETRDLTGWGKDLRMTLAHIKDQKEGLHSLQEIRVCEIHEDNSTRSSQHFYYDGELFLSQNLETLEWTMPQSSRAQTLAMNVRNFLKEDAMETDTHYHAMRADCLQELRRYLKSGVVLRRTVPPMVQVTRSEASGGSGDRVTITCRASQDVSTAVAWYQQKPGKAPKLLIYSASFLYSGVPSRFSGSGSGTDFTLTISSLQPEDFATYYCQQSYTTPPTFGQGTKVEIKGGSSRSSSSGGGGSGGGGEVQLVESGGGLVQPGGSLRLSCAASGFTFTSTGISWVRQAPGKGLEWVGRIYPTNGSTNYADSVKGRFTISADTSKNTAYLQMNSLRAEDTAVYYCARTYGIYDLYVDYTEYVMDYWGQGTLVTVSSGGSSRSSSSGGGGSGGGGDIQMTQSPSSLSASGGSGQITVTCRASGFYPWNITLSWRQDGVSLSHDTQQWGDVLPDGQGTYQTWVATRISQGEEQRFTCYMEHSGQHSTHPVPSGKGSHHHHHH | ~30 fold | 18 fold | ~15 fold | 0.5 nM | 27 fold | 0.7 nM | 9e-05 s⁻¹ | 200000 M⁻¹ s⁻¹ | – | – | – | – | – |
| α1-α2 variant 17 (His-tagged, with attached heterologous polypeptide) (ligand) EPHSLRYNLTVLSWDGSVQSGFLTEVHLDGQPFLRCDRQKCRAKPQGQWAEDVLGNKTWDRETRDLTLWGKDLRMTLAHIKDQKEGLHSLQEIRVCEIHEDNSTRSSQHFYYDGELFLSQNLETLEWTMPQSSRAQTLAMNVRNFLKEDAMETDTHYHAMRADCLQELRRYLKSGVVLRRTVPPMVQVTRSEASGGSGDRVTITCRASQDVSTAVAWYQQKPGKAPKLLIYSASFLYSGVPSRFSGSGSGTDFTLTISSLQPEDFATYYCQQSYTTPPTFGQGTKVEIKGGSSRSSSSGGGGSGGGGEVQLVESGGGLVQPGGSLRLSCAASGFTFTSTGISWVRQAPGKGLEWVGRIYPTNGSTNYADSVKGRFTISADTSKNTAYLQMNSLRAEDTAVYYCARTYGIYDLYVDYTEYVMDYWGQGTLVTVSSGGSSRSSSSGGGGSGGGGDIQMTQSPSSLSASGGSGQITVTCRASGFYPWNITLSWRQDGVSLSHDTQQWGDVLPDGQGTYQTWVATRISQGEEQRFTCYMEHSGQHSTHPVPSGKGSHHHHHH | ~30 fold | 18 fold | ~15 fold | 0.4 nM | 32 fold | 0.6 nM | 7e-05 s⁻¹ | 200000 M⁻¹ s⁻¹ | – | – | – | – | – |
| α1-α2 variant 18 (His-tagged, with attached heterologous polypeptide) (ligand) EPHSLRYNLTVLSWDGSVQPGFLTEVHLDGQPFLRCDRQKCRAKPQGQWAEDVLGNKTWDRETRDLTLWGKDLRMTLAHIKDQKEGLHSLQEIRVCEIHEDNSTRSSQHFYYDGELFLSQNLETLEWTMPQSSRAQTLAMNVRNFLKEDAMETDTHYHAMRADCLQELRRYLKSGVVLRRTVPPMVQVTRSEASGGSGDRVTITCRASQDVSTAVAWYQQKPGKAPKLLIYSASFLYSGVPSRFSGSGSGTDFTLTISSLQPEDFATYYCQQSYTTPPTFGQGTKVEIKGGSSRSSSSGGGGSGGGGEVQLVESGGGLVQPGGSLRLSCAASGFTFTSTGISWVRQAPGKGLEWVGRIYPTNGSTNYADSVKGRFTISADTSKNTAYLQMNSLRAEDTAVYYCARTYGIYDLYVDYTEYVMDYWGQGTLVTVSSGGSSRSSSSGGGGSGGGGDIQMTQSPSSLSASGGSGQITVTCRASGFYPWNITLSWRQDGVSLSHDTQQWGDVLPDGQGTYQTWVATRISQGEEQRFTCYMEHSGQHSTHPVPSGKGSHHHHHH | ~30 fold | 18 fold | ~15 fold | 0.4 nM | 38 fold | 0.5 nM | 9e-05 s⁻¹ | 230000 M⁻¹ s⁻¹ | – | – | – | – | – |
| His-avitag natural NKG2D ectodomain, biotinylated (receptor, also called natural form of the ectodomain of NKG2D) EPHHHHHHGLNDIFEAQKIEWHENSLFNQEVQIPLTESYCGPCPKNWICYKNNCYQFFDESKNWYESQASCMSQNASLLKVYSKEDQDLLKLVKSYHWMGLVHIPTNGSWQWEDGSILSPNLLTIIEMQKGDCALYASSFKGYIENCSTPNTYICMQRTV | – | – | – | – | – | – | – | – | binds | binds | binds | binds | binds |
| double Y152A plus Y199A mutant NKG2D ectodomain (His-avitag, biotinylated) (receptor, not shown: N-terminal His-avitag) EPHHHHHHGLNDIFEAQKIEWHENSLFNQEVQIPLTESYCGPCPKNWICYKNNCYQFFDESKNWYESQASCMSQNASLLKVYSKEDQDLLKLVKSAHWMGLVHIPTNGSWQWEDGSILSPNLLTIIEMQKGDCALYASSFKGAIENCSTPNTYICMQRTV | – | – | – | – | – | – | – | – | no binding | no binding | no binding | no binding | no binding |
| Y152A mutant NKG2D ectodomain (His-avitag, biotinylated) (receptor, also called Y152A non-natural NKG2D receptor; not shown: N-terminal His-avitag) EPHHHHHHGLNDIFEAQKIEWHENSLFNQEVQIPLTESYCGPCPKNWICYKNNCYQFFDESKNWYESQASCMSQNASLLKVYSKEDQDLLKLVKSAHWMGLVHIPTNGSWQWEDGSILSPNLLTIIEMQKGDCALYASSFKGYIENCSTPNTYICMQRTV | – | – | – | – | – | – | – | – | no binding | no binding | no binding | no binding | no binding |
| Y199A mutant NKG2D ectodomain (His-avitag, biotinylated) (receptor, not shown: N-terminal His-avitag) EPHHHHHHGLNDIFEAQKIEWHENSLFNQEVQIPLTESYCGPCPKNWICYKNNCYQFFDESKNWYESQASCMSQNASLLKVYSKEDQDLLKLVKSYHWMGLVHIPTNGSWQWEDGSILSPNLLTIIEMQKGDCALYASSFKGAIENCSTPNTYICMQRTV | – | – | – | – | – | – | – | – | no binding | no binding | no binding | no binding | no binding |
